One molecule from paper PMC11903955 can be followed below.

This data set addresses T1, CDK8 (Arabidopsis thaliana, UniProt Q84TI6 1-470).
T1 sequence: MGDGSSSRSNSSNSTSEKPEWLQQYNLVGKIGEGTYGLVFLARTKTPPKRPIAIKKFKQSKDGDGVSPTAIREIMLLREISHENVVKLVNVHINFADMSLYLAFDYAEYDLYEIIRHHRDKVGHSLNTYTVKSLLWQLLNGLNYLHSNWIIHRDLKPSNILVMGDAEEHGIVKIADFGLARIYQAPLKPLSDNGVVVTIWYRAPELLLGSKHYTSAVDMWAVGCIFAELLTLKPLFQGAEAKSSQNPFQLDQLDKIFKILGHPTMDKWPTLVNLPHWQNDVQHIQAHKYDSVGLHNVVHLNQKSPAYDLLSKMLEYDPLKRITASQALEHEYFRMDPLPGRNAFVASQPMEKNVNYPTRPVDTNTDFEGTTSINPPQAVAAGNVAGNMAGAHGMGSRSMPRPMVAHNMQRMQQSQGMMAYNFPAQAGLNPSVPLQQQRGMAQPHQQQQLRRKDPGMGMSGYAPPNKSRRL
Nature of the data set: EMSA.

B1: AT-rich probe (dsDNA)
DNA 1: TAACACATATTTTGATAAATTTATTACTAAAACTATTTT
DNA 2: AAAATAGTTTTAGTAATAAATTTATCAAAATATGTGTTA
With B1, the binding result was “no binding”.
